Laboratory results from patent US20150110744A1 (INTER K, published 2015).

Columns and labels:
Test in all cases: cell-based or functional assay
c-Src (h) = c-Src (h) (human (printed as '(h)'), UniProt P12931 1-536, limits assumed)
Akt3 (PKB gamma) = Akt3 (PKB gamma) (human (printed as '(h)'), UniProt Q9Y243 1-479, limits assumed)
Akt2 (PKB beta) = Akt2 (PKB beta) (human (printed as '(h)'), UniProt P31751 1-481, limits assumed)
Sequence of Akt2 (PKB beta) (human (printed as '(h)'), UniProt P31751 1-481, limits assumed) (P31751 whole entry): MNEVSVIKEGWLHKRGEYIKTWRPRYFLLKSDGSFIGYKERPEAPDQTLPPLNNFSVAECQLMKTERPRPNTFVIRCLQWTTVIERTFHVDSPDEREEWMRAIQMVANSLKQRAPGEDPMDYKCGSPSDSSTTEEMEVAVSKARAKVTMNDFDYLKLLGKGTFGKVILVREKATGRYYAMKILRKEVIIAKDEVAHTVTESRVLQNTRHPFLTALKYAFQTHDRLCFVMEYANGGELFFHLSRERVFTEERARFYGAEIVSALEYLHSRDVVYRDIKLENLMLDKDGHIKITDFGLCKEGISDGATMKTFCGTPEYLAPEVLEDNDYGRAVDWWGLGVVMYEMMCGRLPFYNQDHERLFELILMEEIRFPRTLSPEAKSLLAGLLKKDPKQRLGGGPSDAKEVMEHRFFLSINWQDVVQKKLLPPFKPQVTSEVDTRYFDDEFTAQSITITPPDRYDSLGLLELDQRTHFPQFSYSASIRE

Sequence of Akt3 (PKB gamma) (human (printed as '(h)'), UniProt Q9Y243 1-479, limits assumed) (Q9Y243 whole entry): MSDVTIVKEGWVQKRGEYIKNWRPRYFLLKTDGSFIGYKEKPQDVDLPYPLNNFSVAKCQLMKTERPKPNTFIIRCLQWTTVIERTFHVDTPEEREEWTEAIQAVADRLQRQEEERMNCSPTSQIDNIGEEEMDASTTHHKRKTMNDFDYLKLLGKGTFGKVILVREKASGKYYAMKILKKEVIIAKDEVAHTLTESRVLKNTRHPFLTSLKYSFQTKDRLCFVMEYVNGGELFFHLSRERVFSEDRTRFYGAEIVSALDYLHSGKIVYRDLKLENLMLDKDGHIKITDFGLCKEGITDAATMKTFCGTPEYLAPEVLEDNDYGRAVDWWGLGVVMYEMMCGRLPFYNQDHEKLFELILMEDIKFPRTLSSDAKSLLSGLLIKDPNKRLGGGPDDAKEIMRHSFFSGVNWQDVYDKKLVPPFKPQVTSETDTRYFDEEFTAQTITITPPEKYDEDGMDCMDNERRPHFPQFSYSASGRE

Row | Binder | Inhibitory Activity (%), cell-free in vitro kinase assay, peptide 50 µM (c-Src (h)) | Inhibitory Activity (%), cell-free in vitro kinase assay, peptide 50 µM (Akt3 (PKB gamma)) | Inhibitory Activity (%), cell-free in vitro kinase assay, peptide 50 µM (Akt2 (PKB beta))
1 | RAAKAARAAK [RAAKAARAAK peptide] | 3% | 2% | 0%
2 | RSKAKNPLYR [RSKAKNPLYR peptide (β6 integrin derived)] | 53% | 8% | 3%
3 | RAKAKAAAAR [RAKAKAAAAR peptide] | 27% | 52% | 0%
4 | RVKVKVVVVR [RVKVKVVVVR peptide] | 43% | 93% | 89%
